# In patent US20240165282A1, “CONFORMATIONAL CONSTRAINED SOMATOSTATIN RECEPTOR 3 PEPTIDE LIGANDS AND THEIR CONJUGATES AND USES THEREOF” (STARGET PHARMA LTD., priority 2021, published 2024):
# *1 amine or outer side, *2 acyl side, *3 side chain or, on linkers, in order; H or OH if unused. Bridges are numbered along the chain shown (N, C = ends). [ ]: non-standard residue; d: D form. The star is where a group is joined. DOTA = O=C(O)CN1CCN(CC(=O)O)CCN(CC(=O)*)CCN(CC(=O)O)CC1; N(2-mercaptoethyl)Gly = O=C(CN(CCS[*:3])[*:1])[*:2]; Glutaryl = O=C(CCCC(=O)[*:2])[*:1]; Orn = NCCC[C@H](N)C(=O)O; Aoc = NCCCCCCCC(=O)O; CPT = camptothecin
# B1: SEQ ID NO: 25 (peptide)
# peptide: {DOTA}-[dF]RCY[dW]KTF[N(2-mercaptoethyl)Gly]-NH2
# modifications: disulfide 3-9
# SMILES: C[C@@H](O)[C@@H]1NC(=O)[C@H](CCCCN)NC(=O)[C@@H](Cc2c[nH]c3ccccc23)NC(=O)[C@H](Cc2ccc(O)cc2)NC(=O)[C@@H](NC(=O)[C@H](CCCNC(=N)N)NC(=O)[C@@H](Cc2ccccc2)NC(=O)CN2CCN(CC(=O)O)CCN(CC(=O)O)CCN(CC(=O)O)CC2)CSSCCN(CC(N)=O)C(=O)[C@H](Cc2ccccc2)NC1=O
# B2: SEQ ID NO: 22 (peptide)
# peptide: {DOTA}-[dF]EE[Orn]CF[dW]KTF[N(2-mercaptoethyl)Gly]-NH2
# modifications: disulfide 5-11
# SMILES: C[C@@H](O)[C@@H]1NC(=O)[C@H](CCCCN)NC(=O)[C@@H](Cc2c[nH]c3ccccc23)NC(=O)[C@H](Cc2ccccc2)NC(=O)[C@@H](NC(=O)[C@H](CCCN)NC(=O)[C@H](CCC(=O)O)NC(=O)[C@H](CCC(=O)O)NC(=O)[C@@H](Cc2ccccc2)NC(=O)CN2CCN(CC(=O)O)CCN(CC(=O)O)CCN(CC(=O)O)CC2)CSSCCN(CC(N)=O)C(=O)[C@H](Cc2ccccc2)NC1=O
# B3: SEQ ID NO: 27 (peptide)
# peptide: {CPT-Aoc}-[dF]RCF[dW]KTF[N(2-mercaptoethyl)Gly]-NH2
# modifications: disulfide 3-9
# B4: SEQ ID NO: 23 (peptide)
# peptide: {DOTA}-[dF]E[Orn]CF[dW]KTF[N(2-mercaptoethyl)Gly]-NH2
# modifications: disulfide 4-10
# SMILES: C[C@@H](O)[C@@H]1NC(=O)[C@H](CCCCN)NC(=O)[C@@H](Cc2c[nH]c3ccccc23)NC(=O)[C@H](Cc2ccccc2)NC(=O)[C@@H](NC(=O)[C@H](CCCN)NC(=O)[C@H](CCC(=O)O)NC(=O)[C@@H](Cc2ccccc2)NC(=O)CN2CCN(CC(=O)O)CCN(CC(=O)O)CCN(CC(=O)O)CC2)CSSCCN(CC(N)=O)C(=O)[C@H](Cc2ccccc2)NC1=O
# B5: SEQ ID NO: 28 (peptide)
# peptide: {Niraparib-Glutaryl}-[dF]RCF[dW]KTF[N(2-mercaptoethyl)Gly]-NH2
# modifications: disulfide 3-9
# B6: SEQ ID NO: 26 (peptide)
# peptide: H-XRCF[dW]KTY[N(2-mercaptoethyl)Gly]-NH2
# modifications: disulfide 3-9; not fully specified (residue 1); printed as H-Phe1-Arg2-Cys3-Phe4-D-Trp5-Lys6-Thr7-Tyr8-NTEG9-NH2 (cyclo 3-9)
# Molecular target: human cloned somatostatin receptor 3 (human) (UniProt P32745)
# Experiment: 125I-Tyr11-SRIF-14 displacement
# Chain of human cloned somatostatin receptor 3 (human) (P32745 whole entry): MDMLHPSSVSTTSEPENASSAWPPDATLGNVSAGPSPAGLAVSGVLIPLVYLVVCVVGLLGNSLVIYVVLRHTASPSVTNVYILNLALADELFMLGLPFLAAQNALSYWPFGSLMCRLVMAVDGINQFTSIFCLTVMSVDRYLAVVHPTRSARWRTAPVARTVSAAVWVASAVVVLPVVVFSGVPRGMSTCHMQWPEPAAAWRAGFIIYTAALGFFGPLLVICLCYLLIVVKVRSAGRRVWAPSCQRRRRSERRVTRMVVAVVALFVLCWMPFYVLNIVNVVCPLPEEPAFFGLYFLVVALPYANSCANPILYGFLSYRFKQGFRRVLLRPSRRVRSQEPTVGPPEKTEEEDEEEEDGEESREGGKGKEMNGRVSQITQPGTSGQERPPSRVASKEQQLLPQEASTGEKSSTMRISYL
% displacement at 1 nM [%],% displacement at 10 nM [%],Binder
65,94,B1
0,49,B2
12,51,B3
19,56,B4
28,79,B5
53,86,B6

# Molecular target: human cloned somatostatin receptor 1 (human) (UniProt P30872)
# Experiment: 125I-Tyr11-SRIF-14 displacement
# Chain of human cloned somatostatin receptor 1 (human) (P30872 whole entry): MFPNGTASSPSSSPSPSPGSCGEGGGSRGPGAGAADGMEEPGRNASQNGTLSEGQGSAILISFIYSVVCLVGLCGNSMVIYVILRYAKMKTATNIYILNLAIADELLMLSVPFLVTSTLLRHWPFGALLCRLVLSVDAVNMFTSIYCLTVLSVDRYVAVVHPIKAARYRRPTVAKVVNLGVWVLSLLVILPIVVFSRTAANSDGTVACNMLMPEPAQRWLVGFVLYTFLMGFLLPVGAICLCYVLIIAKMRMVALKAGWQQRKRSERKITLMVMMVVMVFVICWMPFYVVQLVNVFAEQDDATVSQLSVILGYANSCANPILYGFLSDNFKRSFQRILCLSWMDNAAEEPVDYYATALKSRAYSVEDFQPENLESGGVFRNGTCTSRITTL
% displacement at 1 nM [%],% displacement at 10 nM [%],Binder
1,15,B1
8,7,B2
0,3,B3
4,6,B4
12,23,B5
0,24,B6

# Molecular target: human cloned somatostatin receptor 5 (human) (UniProt P35346)
# Experiment: 125I-Tyr11-SRIF-14 displacement
# Chain of human cloned somatostatin receptor 5 (human) (P35346 whole entry): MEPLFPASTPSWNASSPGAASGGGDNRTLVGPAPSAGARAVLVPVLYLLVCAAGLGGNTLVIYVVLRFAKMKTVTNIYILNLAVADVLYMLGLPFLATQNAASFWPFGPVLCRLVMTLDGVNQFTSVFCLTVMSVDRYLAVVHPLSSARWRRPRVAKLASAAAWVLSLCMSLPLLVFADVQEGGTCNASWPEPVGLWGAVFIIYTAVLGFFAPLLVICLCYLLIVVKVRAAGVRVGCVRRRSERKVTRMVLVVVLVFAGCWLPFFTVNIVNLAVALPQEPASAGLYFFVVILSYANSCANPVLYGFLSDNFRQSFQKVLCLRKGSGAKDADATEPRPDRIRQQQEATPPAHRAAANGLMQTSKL
% displacement at 1 nM [%],% displacement at 10 nM [%],Binder
6,16,B1
0,0,B2
0,0,B3
0,0,B4
0,0,B5
0,1,B6

# Molecular target: human cloned somatostatin receptor 4 (human) (UniProt P31391)
# Experiment: 125I-Tyr11-SRIF-14 displacement
# Chain of human cloned somatostatin receptor 4 (human) (P31391 whole entry): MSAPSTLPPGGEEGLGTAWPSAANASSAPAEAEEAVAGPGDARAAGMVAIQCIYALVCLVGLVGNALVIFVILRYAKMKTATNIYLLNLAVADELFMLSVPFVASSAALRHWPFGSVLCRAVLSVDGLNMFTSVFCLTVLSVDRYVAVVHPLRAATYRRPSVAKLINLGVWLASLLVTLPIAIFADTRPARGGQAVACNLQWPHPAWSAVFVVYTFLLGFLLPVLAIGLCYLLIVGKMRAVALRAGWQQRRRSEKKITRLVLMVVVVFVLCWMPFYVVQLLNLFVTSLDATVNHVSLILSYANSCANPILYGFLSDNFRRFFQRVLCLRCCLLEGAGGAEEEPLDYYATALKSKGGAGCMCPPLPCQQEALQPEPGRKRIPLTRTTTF
% displacement at 1 nM [%],% displacement at 10 nM [%],Binder
5,8,B1
0,3,B2
0,0,B3
0,0,B4
0,0,B5
0,0,B6

# Molecular target: human cloned somatostatin receptor 2 (human) (UniProt P30874)
# Experiment: 125I-Tyr11-SRIF-14 displacement
# Chain of human cloned somatostatin receptor 2 (human) (P30874 whole entry): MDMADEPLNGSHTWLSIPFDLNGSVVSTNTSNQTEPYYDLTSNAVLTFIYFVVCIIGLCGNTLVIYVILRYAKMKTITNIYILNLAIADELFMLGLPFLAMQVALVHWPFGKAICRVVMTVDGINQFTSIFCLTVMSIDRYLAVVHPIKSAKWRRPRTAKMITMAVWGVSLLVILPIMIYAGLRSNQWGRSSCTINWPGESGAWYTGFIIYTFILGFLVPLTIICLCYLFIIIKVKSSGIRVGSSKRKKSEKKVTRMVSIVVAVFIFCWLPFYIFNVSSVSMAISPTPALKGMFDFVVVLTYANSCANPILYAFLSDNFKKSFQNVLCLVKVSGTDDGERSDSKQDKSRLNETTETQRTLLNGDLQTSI
% displacement at 1 nM [%],% displacement at 10 nM [%],Binder
0,0,B1
0,0,B2
0,0,B3
0,0,B4
0,0,B5
0,0,B6
